Assay results published in paper PMC10530652 (BME Frontiers, 2021).

Assays:
[1] = test system: Salmonella typhimurium strain TA100; assay: Reduced test article AMES test, TA100; format: cell-based; conditions: up to 250 μg/well, in the absence and presence of rat liver S-9
Procedure: These conditions included treatments at concentrations up to 250 μg/well (a 20-fold pro rata reduction from the standard regulatory Ames assay maximum concentration), in the absence and in the presence of a rat liver metabolic activation system (S-9).

[2] = Stability study of FIB One aqueous formulation (HPLC); format: physicochemical; conditions: for Conc. / pH: aqueous formulation; for Conc. / ∆% / Total imp. RRT(%): HPLC; for ∆%: change of conc.
emphysema patients = conditions: 74 emphysema patients, placebo or AZD1236 75 mg twice daily for 6 weeks; cited from earlier work
From the text: (§1) MMP inhibition has been identified as a target for drug interventions in inflammatory diseases. MMP inhibitors used in trials as cancer therapies were disappointing due to lack of efficacy and significant adverse effects. Studies have also been limited by a lack of quantifiable biomarkers to reflect on their in vivo and functional activity. […] It had previously been used in a phase 2A safety and tolerab ...

MMP-9 = target: T1, MMP-9 (Homo sapiens, UniProt P14780); conditions: placebo-controlled, 55 COPD patients; cited from earlier work
T1 construct: recombinant MMPs (Enzo Life Sciences) (active domains of MMP-1, MMP-2, MMP-3, MMP-7, MMP-8, MMP-9, MMP-10, MMP-11, MMP-12, and MMP-13); purchased Enzo Life Sciences
T1 sequence (P14780 107-444 limits assumed): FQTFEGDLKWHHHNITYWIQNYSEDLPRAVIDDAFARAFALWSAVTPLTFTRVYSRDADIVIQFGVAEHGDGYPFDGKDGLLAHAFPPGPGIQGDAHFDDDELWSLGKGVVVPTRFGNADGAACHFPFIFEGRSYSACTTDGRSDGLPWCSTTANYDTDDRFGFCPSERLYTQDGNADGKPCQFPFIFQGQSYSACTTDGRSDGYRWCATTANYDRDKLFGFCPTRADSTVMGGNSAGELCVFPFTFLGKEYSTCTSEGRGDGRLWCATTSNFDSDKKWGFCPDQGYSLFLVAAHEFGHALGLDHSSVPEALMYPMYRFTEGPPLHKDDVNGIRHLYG
From the text: as §1

MMP-12 = conditions: placebo-controlled, 55 COPD patients; cited from earlier work
From the text: as §1

[3] = fridge 2-8 °C, 1m, 1st of 2 vials
[4] = fridge 2-8 °C, 1m, 2nd of 2 vials
[5] = fridge 2-8 °C, 3m, 1st of 2 vials
[6] = fridge 2-8 °C, 3m, 2nd of 2 vials
[7] = fridge 2-8 °C, 6m, 1st of 2 vials
[8] = fridge 2-8 °C, 6m, 2nd of 2 vials
[9] = fridge 2-8 °C, 9m, 1st of 2 vials
[10] = fridge 2-8 °C, 9m, 2nd of 2 vials
[11] = fridge 2-8 °C, 10m, 1st of 2 vials
[12] = fridge 2-8 °C, 10m, 2nd of 2 vials
[13] = fridge 2-8 °C, 12m, 1st of 2 vials
[14] = fridge 2-8 °C, 12m, 2nd of 2 vials
[15] = fridge 2-8 °C, 21m, 1st of 2 vials
[16] = fridge 2-8 °C, 21m, 2nd of 2 vials
[17] = fridge 2-8 °C, 24m, 1st of 2 vials
[18] = fridge 2-8 °C, 24m, 2nd of 2 vials
[19] = fridge 2-8 °C, 24h, 1st of 2 vials
[20] = fridge 2-8 °C, 24h, 2nd of 2 vials
[21] = fridge 2-8 °C, 14d, 1st of 2 vials
[22] = fridge 2-8 °C, 14d, 2nd of 2 vials

Question: With (Pro-Phe-Gly-Nle-Lys-βAla)3 [FIB One] as the substance, how does the mutation induction [1] read?
Answer: The mutation induction was “did not induce mutation”.

Question: And the “degradation in aqueous formulation of the drug product (HPLC traces)” value ([2]; after 24 months, stored at 2-8°C)?
Answer: Its value is “no degradation”.

Question: And the Conc. [2, 3]?
Answer: The Conc. was 80.16 µg per 5mL.

Question: What about the Conc. [2, 4] of the same substance?
Answer: The Conc. was 77.20 µg per 5mL.

Question: And the Conc. [2, 5]?
Answer: Its Conc. is 78.87 µg per 5mL.

Question: What about the Conc. [2, 6] of the same substance?
Answer: Its Conc. is 72.63 µg per 5mL.

Question: What about the Conc. [2, 7] of the same substance?
Answer: The Conc. was 64.94 µg per 5mL.

Question: What about the Conc. [2, 8] of the same substance?
Answer: The Conc. was 72.74 µg per 5mL.

Question: What about the Conc. [2, 9] of the same substance?
Answer: The Conc. was 70.54 µg per 5mL.

Question: And the Conc. [2, 10]?
Answer: Its Conc. is 66.27 µg per 5mL.

Question: What about the Conc. [2, 11] of the same substance?
Answer: Its Conc. is 62.55 µg per 5mL.

Question: And the Conc. [2, 12]?
Answer: The Conc. was 67.69 µg per 5mL.

Question: And the pH [2, 13]?
Answer: The pH was 7.5.

Question: What about the pH [2, 14] of the same substance?
Answer: Its pH is 7.5.

Question: And the Conc. [2, 13]?
Answer: The Conc. was 60.40 µg per 5mL.

Question: What about the Conc. [2, 14] of the same substance?
Answer: The Conc. was 57.67 µg per 5mL.

Question: What about the pH [2, 15] of the same substance?
Answer: Its pH is 7.5.

Question: What about the pH [2, 16] of the same substance?
Answer: Its pH is 7.5.

Question: What about the Conc. [2, 15] of the same substance?
Answer: Its Conc. is 65.38 µg per 5mL.

Question: What about the Conc. [2, 16] of the same substance?
Answer: Its Conc. is 59.62 µg per 5mL.

Question: What about the pH [2, 17] of the same substance?
Answer: The pH was 7.5.

Question: And the pH [2, 18]?
Answer: Its pH is 7.5.

Question: What about the Conc. [2, 17] of the same substance?
Answer: The Conc. was 58.4 µg per 5mL.

Question: What about the Conc. [2, 18] of the same substance?
Answer: Its Conc. is 58.4 µg per 5mL.

Question: What about the Conc. [2, 19] of the same substance?
Answer: Its Conc. is 81.63 µg per 5mL.

Question: What about the Conc. [2, 20] of the same substance?
Answer: Its Conc. is 82.28 µg per 5mL.

Question: And the Conc. [2, 21]?
Answer: Its Conc. is 76.85 µg per 5mL.

Question: What about the Conc. [2, 22] of the same substance?
Answer: The Conc. was 84.60 µg per 5mL.

Question: What about the pH ([2]; timepoint 0) of the same substance?
Answer: Its pH is 7.5.

Question: What about the “∆%” value [2, 3] of the same substance?
Answer: Its value is -10.9%.

Question: And the “∆%” value [2, 4]?
Answer: The value was -14.2%.

Question: What about the “∆%” value [2, 5] of the same substance?
Answer: Its value is -12.4%.

Question: And the “∆%” value [2, 6]?
Answer: The value was -19.3%.

Question: And the “∆%” value [2, 7]?
Answer: Its value is -27.8%.

Question: What about the “∆%” value [2, 8] of the same substance?
Answer: The value was -19.2%.

Question: What about the “∆%” value [2, 9] of the same substance?
Answer: Its value is -21.6%.

Question: What about the “∆%” value [2, 10] of the same substance?
Answer: Its value is -26.4%.

Question: What about the “∆%” value [2, 11] of the same substance?
Answer: The value was -30.5%.

Question: What about the “∆%” value [2, 12] of the same substance?
Answer: The value was -24.8%.

Question: What about the “∆%” value [2, 13] of the same substance?
Answer: The value was -32.9%.

Question: And the “∆%” value [2, 14]?
Answer: Its value is -35.9%.

Question: What about the “∆%” value [2, 15] of the same substance?
Answer: Its value is -27.3%.

Question: And the “∆%” value [2, 16]?
Answer: Its value is -33.8%.

Question: What about the “∆%” value [2, 17] of the same substance?
Answer: Its value is -35.1%.

Question: And the “∆%” value [2, 18]?
Answer: Its value is -35.1%.

Question: And the “∆%” value [2, 19]?
Answer: Its value is -9.3%.

Question: And the “∆%” value [2, 20]?
Answer: Its value is -8.6%.

Question: And the “∆%” value [2, 21]?
Answer: Its value is -14.6%.

Question: And the “∆%” value [2, 22]?
Answer: The value was -6.1%.

Question: And the “Total imp. RRT(%)” value [2, 3]?
Answer: The value was “ND/NQ ND/NQ”.

Question: What about the “Total imp. RRT(%)” value [2, 4] of the same substance?
Answer: Its value is “ND/NQ ND/NQ”.

Question: And the “Total imp. RRT(%)” value [2, 5]?
Answer: Its value is “ND/NQ ND/NQ”.

Question: And the “Total imp. RRT(%)” value [2, 6]?
Answer: The value was “ND/NQ ND/NQ”.

Question: What about the “Total imp. RRT(%)” value [2, 7] of the same substance?
Answer: The value was “ND/NQ ND/NQ”.

Question: And the “Total imp. RRT(%)” value [2, 8]?
Answer: The value was “ND/NQ ND/NQ”.

Question: What about the “Total imp. RRT(%)” value [2, 9] of the same substance?
Answer: Its value is “ND/NQ ND/NQ”.

Question: And the “Total imp. RRT(%)” value [2, 10]?
Answer: Its value is “ND/NQ ND/NQ”.

Question: And the “Total imp. RRT(%)” value [2, 11]?
Answer: Its value is “ND/NQ ND/NQ”.

Question: What about the “Total imp. RRT(%)” value [2, 12] of the same substance?
Answer: Its value is “ND/NQ ND/NQ”.

Question: And the “Total imp. RRT(%)” value [2, 13]?
Answer: The value was “ND/NQ ND/NQ”.

Question: What about the “Total imp. RRT(%)” value [2, 14] of the same substance?
Answer: Its value is “ND/NQ ND/NQ”.

Question: What about the “Total imp. RRT(%)” value [2, 15] of the same substance?
Answer: The value was “ND/NQ ND/NQ”.

Question: And the “Total imp. RRT(%)” value [2, 16]?
Answer: Its value is “ND/NQ ND/NQ”.

Question: What about the “Total imp. RRT(%)” value [2, 17] of the same substance?
Answer: Its value is “ND/NQ ND/NQ”.

Question: And the “Total imp. RRT(%)” value [2, 18]?
Answer: The value was “ND/NQ ND/NQ”.

Question: What about the “Total imp. RRT(%)” value [2, 19] of the same substance?
Answer: Its value is “ND/NQ ND/NQ”.

Question: What about the “Total imp. RRT(%)” value [2, 20] of the same substance?
Answer: The value was “ND/NQ ND/NQ”.

Question: And the “Total imp. RRT(%)” value [2, 21]?
Answer: Its value is “ND/NQ ND/NQ”.

Question: And the “Total imp. RRT(%)” value [2, 22]?
Answer: The value was “ND/NQ ND/NQ”.

Question: Which “effect on the secondary lung physiology endpoints” value (emphysema patients) does the source give for AZD1236 here?
Answer: Its value is “no effect”.

Question: And the “MMP-9 inhibition in induced sputum” value (MMP-9)?
Answer: The value was “failed to demonstrate”.

Question: And the “MMP-12 inhibition in induced sputum” value (MMP-12)?
Answer: The value was “failed to demonstrate”.
